From publication PMC8244865, “Recruitment of phospholipase Cγ1 to the non-structural membrane protein pK15 of Kaposi Sarcoma-associated herpesvirus promotes its Src-dependent phosphorylation” (PLoS Pathogens, 2021) come the findings set out here.

Assay type in all cases: binding
Assay [1] relates to PLCγ1 nSH2 domain (in tSH2 aa 545–772). As to the kind of experiment: crystal structure with truncated PLCγ1 tSH2, nSH2 site. As to conditions: truncated tSH2 (aa 545–772), resolution 2.1 Å. The procedure: A shortened version of the PLCγ1 tSH2 domain (aa 545–772) lacking the linker peptide connecting the PLCγ1 cSH2 and SH3 domains (see Results section) was cloned into a pET28a vector carrying an N-terminal His Tag and a SUMO sequence. Expression was carried out in E. coli and the protein was purified to homogeneity as described above. His-Tag and SUMO were proteolytically removed using SUMO protease (SIGMA) following the manufacturer’s instructions, and the cleaved protein purified on a HisTrap column. Fractions containing cleaved protein were further purified by size exclusion chromatography (SEC) using a Superdex 75 26/600 column (GE Healthcare) equilibrated with 50mM Tris pH7.5, 150mM NaCl and 1mM TCEP buffer. The purified protein in SEC buffer was added to lyophilized phosphorylated 12mer pK15 peptide (DDLpYEEVLFPRN) in a 1:8 molar ratio (Protein: peptide) at a final concentration of 3mg/ml of peptide and 7.5mg/ml protein. Crystals were grown at 293 K using the sitting-drop vapor diffusion method in drops containing 1μl protein solution mixed with 1 μL reservoir solution containing 30% PEG 4000, 0.1M TrisHCl pH 8.5 and 0.2M sodium acetate. The crystals were flash frozen in the mother liquor containing 30% ethylene glycol and diffraction data were collected at P13 at DESY-Hamburg. Data were processed, scaled and reduced with XDS [75], Pointless and programs from the CCP4 suite. […]

Assay [2] relates to PLCγ1 tSH2 domain. Put plainly: AlphaLISA, PLCγ1 tSH2. As to conditions: phosphorylated by 2xStrep-Src, 300 nM each protein, 1 h room temperature, 615 nm, at least two independent experiments. The procedure:
(§1) Fig 4 The PLCγ1 cSH2 domain is required for the binding of PLCγ1 to phosphorylated pK15 in vitro and may serve as a dominant-negative inhibitor. GST-fused pK15 cytoplasmic tail WT (A), or its truncated mutant N2 [51] (B), were phosphorylated in vitro by 2xStrep-Src and an AlphaLISA was performed with the indicated His-tagged fragments of PLCγ1. Mean and standard deviation from at least two independent experiments with two technical replicates each are depicted. GST fusion proteins of the N1 (C) or N2 (D) truncation mutants of the pK15 cytoplasmic tail were phosphorylated in vitro by 2xStrep-Src and their interaction with recombinant purified PLCγ1 tSH2 (tandem SH2) or SA (γ-specific array) domains was measured by AlphaLISA in the presence of increasing concentrations (300 nM, 600 nM, 900 nM, 1200 nM) of the purified PLCγ1 cSH2. […] After 48h lysates were collected and analysed by Western blot using an antibody to PLCγ1 pY^783 to assess the level of PLCγ1 phosphorylation. (F) The intensities of the pPLCγ1 bands shown in panel E were quantified by densitometry, normalized to the values obtained with the empty vector (EV) in the presence of pK15, and plotted as relative values. […]
(§2) His-tagged PLCγ1 (SA, tSH2 or the isolated SH2 domains) was incubated at room temperature with GST-tagged K15P or its mutants for 1 hour. […] Emission at 615 nm was detected on BioTek Synergy 2 plate reader.
On the technique in general: Bead proximity is the source of the signal in Alpha formats.

The subject of assay [3] is PLCγ1 R^586L and R^694L double mutant (DM) (SA and tSH2). Put plainly: AlphaLISA, SA and tSH2 double mutant. As to conditions: phosphorylated; 300 nM each protein. How it is done:
as §1, §2

For assay [4], the system named is PLCγ1 SA domain. Put plainly: AlphaLISA, PLCγ1 SA. As to conditions: phosphorylated by 2xStrep-Src, 300 nM each protein, 1 h room temperature, 615 nm, at least two independent experiments. The procedure: as §1, §2
The test system of assay [5] is PLCγ1 cSH2 R^694L. Put plainly: AlphaLISA, isolated PLCγ1 cSH2 R694L. As to conditions: phosphorylated; 300 nM each protein. The procedure: as §1, §2

“DDLpYEEVLFPRN [pK15 12mer, phosphorylated peptide representing the last 12 amino acids of pK15 CT (DDLp…)]”: the “binding site occupancy in crystal structure” value in assay [1] is reported as “at lower occupancy peptide binding to the nSH2 domain was also observed”.

B1: pK15 CT^WT: pK15 cytoplasmic tail fused to GST at its N-terminal end, phosphorylated in vitro by Src (protein)
chain: SQLLNEVELQEVNRDPPNVFGYASILVSGAEESREPSPQPDQSGMSILRVDGGSAFRIDTAQAATQPTDDLYEEVLFPRN
modifications: tyrosine-phosphorylated in vitro by Src; sites not stated for this construct; left off: GST, N-terminal, kept
Turning to B1, the “interaction (AlphaLISA)” value was “bound more strongly to the PLCγ1 tSH2 domain than to the PLCγ1 SA domain” in assay [2]; “binds strongly to the PLCγ1 tSH2 domain” in assay [2] (listed as pK15 CT^N2); “failed to interact” in assay [3]; “does interact with the PLCγ1 SA” in assay [4]; “only bound weakly to PLCγ1 SA” in assay [4] (listed as pK15 CT^N2); “abolished” in assay [5].
